The target in test [1] is T1, rat NPY Y5 receptor, clone Y861 (rat).
T1 chain: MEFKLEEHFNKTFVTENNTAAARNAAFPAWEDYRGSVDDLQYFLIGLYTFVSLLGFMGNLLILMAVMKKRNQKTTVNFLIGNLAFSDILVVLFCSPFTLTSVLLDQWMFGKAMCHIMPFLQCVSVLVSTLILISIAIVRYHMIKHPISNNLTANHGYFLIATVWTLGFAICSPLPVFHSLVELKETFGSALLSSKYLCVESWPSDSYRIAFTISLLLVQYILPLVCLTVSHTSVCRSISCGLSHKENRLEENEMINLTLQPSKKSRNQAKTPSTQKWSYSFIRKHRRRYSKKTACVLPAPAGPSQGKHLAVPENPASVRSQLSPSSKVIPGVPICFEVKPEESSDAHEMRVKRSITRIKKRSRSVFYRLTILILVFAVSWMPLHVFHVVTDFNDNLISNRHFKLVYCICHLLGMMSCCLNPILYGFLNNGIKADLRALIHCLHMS
Briefly: competition with [125I]PYY, membranes of transfected COS-7 cells. The source says:
(§1) All other peptides were purchased from either Peninsula (Belmont, Calif.) or Bachem (Torrance, Calif.).

Test [2] has as its target T2, rat NPY Y5 receptor, clone Y217.24.13.6B (rat).
T2 chain: T1 chain with L61P
The test is described as above.
Text: as §1

In test [3] the target is T2, rat NPY Y5 receptor, clone Y217.24.13.6B. Briefly: competition with [125I]PYY, membranes of transfected COS-7 cells; first individual value in brackets.
Text: as §1

Test [4] shares this target. Briefly: competition with [125I]PYY, membranes of transfected COS-7 cells; second individual value in brackets.
Text: as §1

Test [5] deals with T3, rat NPY Y5 receptor, clone Y555 (rat).
T3 chain: T1 chain
Briefly: competition with [125I]PYY, membranes of transfected COS-7 cells; first individual value in brackets.
Text: as §1

The target of test [6] is T3, rat NPY Y5 receptor, clone Y555. Briefly: competition with [125I]PYY, membranes of transfected COS-7 cells; average of two experiments.
Text: as §1

For test [7] the target is unchanged. Briefly: competition with [125I]PYY, membranes of transfected COS-7 cells; second individual value in brackets.
Text: as §1

Positions count from the first letter of the chain named. Ends that are not written are not given here.

As to APLEPVYPGDNATPEQMAQYAADLRRYINMLTRPRY [hPP], in test [1], the IC50 (usually the concentration needed to halve the response being measured) was found to be 4.9 nM. On the same count and under the same terms, the same measure for APLEPMYPGDYATHEQRAQYETQLRRYINTLTRPRY [rPP]: 325 nM. For the molecule SALRHYINLITRQRY (ends and bridges not checked) [r/h(22-36)NPY], the concentration for half-maximal inhibition (IC50) in test [2] is over 1000 nM. For YYSALRHYINLITRQRY (ends and bridges not checked) [r/h(20-36)NPY], the IC50 in test [3] stood at 387 nM; in test [4], 332 nM.

Turning to ARYYSALRHYINLITRQRY (ends and bridges not checked) [p(18-36)NPY], the IC50 was found to be 147 nM in test [3] and 107 nM in test [4]. As to SPEELSRYYASLRHYLNLVTRQRY [r(13-36)PYY], the IC50 in test [5] worked out at 9.6 nM; in test [2], 13.2 nM; in test [1] it was 73 nM; in test [6], 32 nM; in test [7], 54 nM. As to HYINLITRQRY (ends and bridges not checked) [r/h(26-36)NPY], in test [2], the IC50 was over 1000 nM.

Source of the values: patent publication US5919901, “Neuropeptide Y receptor Y5 and nucleic acid sequences” (Bayer Corporation, dated 1999).
